Experimental data published in the Human Domainome abundance scans (Beltran et al. 2025).
± gives the uncertainty stated by the source.

B1: TOX high mobility group box family member 3, residues 256 to 323; numbered along this chain, O15405 (parent)
chain: QKPVSAYALFFRDTQAAIKGQNPNATFGEVSKIVASMWDSLGEEQKQVYKRKTEAAKKEYLKALAAYR

Variants of: B1
Test: abundance fitness (aPCA) (normalised: wild type 0, dead -1); higher = more abundant; growth selection in yeast, the domain comes from the species named
Conditions: Homo sapiens

Abundance fitness of substitutions, site by site:
K46: W -0.988 ± 0.24 | F -0.913 ± 0.19 | M -0.356 ± 0.086 | Q -0.08 ± 0.083 | C -0.714 ± 0.18
A17: I -0.012 ± 0.076 | P -0.472 ± 0.1 | W -0.234 ± 0.08 | Y -0.087 ± 0.081 | T 0.035 ± 0.062 | G -0.19 ± 0.079 | C -0.278 ± 0.14
V4: G -0.005 ± 0.063 | R -0.109 ± 0.043 | N 0.02 ± 0.1 | E 0.155 ± 0.064 | Q -0.073 ± 0.058 | M 0.159 ± 0.082 | P -0.001 ± 0.077 | I 0.091 ± 0.072 | A -0.202 ± 0.079
E43: K -0.218 ± 0.1 | R -0.274 ± 0.075 | Q -0.002 ± 0.07 | F -0.237 ± 0.079
Q47: F -0.445 ± 0.14 | R -0.032 ± 0.037 | Y 0.029 ± 0.13 | N 0.102 ± 0.095
A55: T -0.041 ± 0.064 | Y -0.276 ± 0.094 | W -0.297 ± 0.058 | H 0.015 ± 0.053 | L -0.058 ± 0.041 | E 0.076 ± 0.059 | Q -0.001 ± 0.077 | D -0.104 ± 0.07
S31: C -0.163 ± 0.072 | N -0.213 ± 0.16 | K 0.116 ± 0.084 | E 0.015 ± 0.082 | I -0.583 ± 0.15 | R -0.062 ± 0.047 | L -0.637 ± 0.073
G20: V 0.039 ± 0.05 | E 0.085 ± 0.16
E59: G -0.242 ± 0.071 | W -0.573 ± 0.085 | I -0.663 ± 0.33 | H -0.744 ± 0.34 | V -0.3 ± 0.071
Y7: R -0.244 ± 0.042 | H -0.199 ± 0.14 | K -0.033 ± 0.077 | S -0.404 ± 0.076 | P -0.452 ± 0.16 | L -0.547 ± 0.075 | V -0.651 ± 0.13 | C -0.585 ± 0.19
Y67: C 0.208 ± 0.064 | N 0.288 ± 0.076 | P 0.352 ± 0.088 | H 0.155 ± 0.081 | M 0.161 ± 0.082 | D 0.256 ± 0.085
N24: Q -0.353 ± 0.088 | P -0.848 ± 0.14 | W -0.509 ± 0.091 | F -0.154 ± 0.074 | M -0.095 ± 0.058 | K 0.016 ± 0.058
G42: A -0.088 ± 0.052 | K -0.037 ± 0.077 | C 0.04 ± 0.085 | R -0.275 ± 0.052 | D 0.067 ± 0.085 | S 0.086 ± 0.048 | H -0.075 ± 0.11
A63: E 0.285 ± 0.056 | D 0.08 ± 0.081 | F -0.637 ± 0.22 | V -0.212 ± 0.055 | M -0.178 ± 0.059 | S 0.132 ± 0.043
